Bmax data for 13 molecules are collected here from patent publication US20190233512A1 (SUTRO BIOPHARMA, published 2019).

Residue numbers refer to the chain shown, from its start.

Sequences and labels used below:
B1: SRP1848-E07 (antibody, V domains shown)
VH: EVQLVESGGGLVQPGGSLRLSCAASGFNIRKSSIHWVRQAPGKGLEWVGEIFPYDGSTDYADNVKGRFTISADTSKNTAYLQMNSLRAEDTAVYYCARGAWSWRSGYGYYIDYWGQGTLVTVSS
VL: not shown
notes: VH/VL only; Fc-bearing IgG format with trastuzumab LC, HIS/FLAG-tagged, cell-free expressed; constant regions not tied; also called Antibody 36
B2: SRP1848-F11 (antibody, V domains shown)
VH: EVQLVESGGGLVQPGGSLRLSCAASGFNISNNYIHWVRQAPGKGLEWVGGITPIDGNTDYADSVKGRFTISADTSMNTAYLQMNSLRAEDTAVYYCARGSWYWRAGYGYYLDYWGQGALVTVSS
VL: not shown
notes: VH/VL only; Fc-bearing IgG format with trastuzumab LC, HIS/FLAG-tagged, cell-free expressed; constant regions not tied; also called Antibody 46
B3: SRP1848-C04 (antibody, V domains shown)
VH: EVQLVESGGGLVQPGGSLRLSCAASGFNIRHYSIHWVRQAPGKGLEWVGEIYPGPGNTDYADSVKGRFTISADTSKNTAYLQMNSLRAEDTAVYYCARGSLSWRAGYGYYLDYWGQGTLVTVSS
VL: not shown
notes: VH/VL only; Fc-bearing IgG format with trastuzumab LC, HIS/FLAG-tagged, cell-free expressed; constant regions not tied; also called Antibody 20
B4: SRP1848-D10 (antibody, V domains shown)
VH: B1 VH with R30S, K31R, S32N, E50W, F52S, Y54N, S57T, N63S, T74G
VL: not shown
notes: VH/VL only; Fc-bearing IgG format with trastuzumab LC, HIS/FLAG-tagged, cell-free expressed; constant regions not tied; also called Antibody 30
B5: SRP1848-F07 (antibody, V domains shown)
VH: EVQLVESGGGLVQPGGSLRLSCAASGFNISNHSIHWVRQAPGKGLEWVGEIYPNDGITDYADSVKGRFTISADTSKNTAYLQMNSLSAEDTAVYYCARGSWDWRSGYSYYLDYWGQGTLVTVSS
VL: not shown
notes: VH/VL only; Fc-bearing IgG format with trastuzumab LC, HIS/FLAG-tagged, cell-free expressed; constant regions not tied; also called Antibody 42
B6: SRP1848-F05 (antibody, V domains shown)
VH: B5 VH with N31K, H32S, I57S, S87R, D102A, Y110F
VL: not shown
notes: VH/VL only; Fc-bearing IgG format with trastuzumab LC, HIS/FLAG-tagged, cell-free expressed; constant regions not tied; also called Antibody 40
B7: SRP1848-D02 (antibody, V domains shown)
VH: B2 VH with N31H, I54Q, N57Y, M76K, S85R, S100A, Y102S, A118T
VL: not shown
notes: VH/VL only; Fc-bearing IgG format with trastuzumab LC, HIS/FLAG-tagged, cell-free expressed; constant regions not tied; also called Antibody 24
B8: SRP1848-C05 (antibody, V domains shown)
VH: B3 VH with H31K, E50D, Y52F, G54I, P55D, N57I, T58N, L101W, R104K
VL: not shown
notes: VH/VL only; Fc-bearing IgG format with trastuzumab LC, HIS/FLAG-tagged, cell-free expressed; constant regions not tied; also called Antibody 21
B9: SRP1848-G01 (antibody, V domains shown)
VH: B5 VH with N31R, E50W, Y52A, I57S, S87R, D102A, Y110F
VL: not shown
notes: VH/VL only; Fc-bearing IgG format with trastuzumab LC, HIS/FLAG-tagged, cell-free expressed; constant regions not tied; also called Antibody 47
B10: SRP1848-C10 (antibody, V domains shown)
VH: B3 VH with H31T, S33Y, E50G, Y52S, G54I, P55D, N57Y, L101W, R104P
VL: not shown
notes: VH/VL only; Fc-bearing IgG format with trastuzumab LC, HIS/FLAG-tagged, cell-free expressed; constant regions not tied; also called Antibody 23
B11: SRP1848-F10 (antibody, V domains shown)
VH: B5 VH with H32N, E50S, Y52F, I57Y, S87R, D102F, S108G
VL: not shown
notes: VH/VL only; Fc-bearing IgG format with trastuzumab LC, HIS/FLAG-tagged, cell-free expressed; constant regions not tied; also called Antibody 45
B12: SRP1848-D03 (antibody, V domains shown)
VH: EVQLVESGGGVVQPGGSLRLSCAASGFNIRYFSIHWVRQAPGKGLEWVGDIFPNDGSTDYADSVKGRFTISADTSKNTAYLQMNSLRAEETAVYYCARGHWSWPSGYWYYLDYWGQGTLVTVSS
VL: not shown
notes: VH/VL only; Fc-bearing IgG format with trastuzumab LC, HIS/FLAG-tagged, cell-free expressed; constant regions not tied; also called Antibody 25
B13: SRP1848-A02 (antibody, V domains shown)
VH: EVQLVESGGGLVQPGGSLRLSCAASGFNISGFRIHWVRQAPGKGLEWVAGIYPESGATYYADSVKGRFTISADTSKNTAYLQMNSLRAEDTAVYYCARHLYVWDWVLDHVLDYWGQGTLVTVSS
VL: not shown
notes: VH/VL only; Fc-bearing IgG format with trastuzumab LC, HIS/FLAG-tagged, cell-free expressed; constant regions not tied; also called Antibody 2

The first assay deals with T1, Murine folate receptor alpha (mouse, UniProt P35846 25-232).
T1 construct: Stably expressed on CHO cells (CHO-mFOLR1); also called mouse FOLR1; CHO-mFOLR1
T1 sequence (P35846 25-232 limits assumed): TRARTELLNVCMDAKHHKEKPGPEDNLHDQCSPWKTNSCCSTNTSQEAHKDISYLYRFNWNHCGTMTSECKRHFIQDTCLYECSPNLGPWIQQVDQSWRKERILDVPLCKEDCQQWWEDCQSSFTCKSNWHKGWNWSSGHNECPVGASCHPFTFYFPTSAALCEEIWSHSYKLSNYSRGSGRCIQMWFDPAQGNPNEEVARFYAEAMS
In words: FACS, CHO-mFOLR1 cells. For orientation: In flow cytometry, cells or beads pass a laser one at a time.
On to B1, for which the Bmax is 11800 MFI.

For B2, the Bmax came out at 1760 MFI.

In the case of B3, the Bmax worked out at 2510 MFI.

B4 yielded a Bmax of 1860 MFI.

On to B5, for which the Bmax amounted to 1390 MFI.

Molecule B6 yielded a Bmax of 5100 MFI.

In turn, B7 came in with a Bmax of 916 MFI.

For the molecule B8, the Bmax stood at 4130 MFI.

Molecule B9 yielded a Bmax of 1990 MFI.

As for B10, the Bmax was 2330 MFI.

Molecule B11 displayed a Bmax of 1740 MFI.

Turning to B12, the Bmax was found to be 3170 MFI.

For the molecule B13, the Bmax was determined as 18600 MFI.

In the next assay the target is T2, Cynomolgus folate receptor alpha (cynomolgus monkey, UniProt P15328 25-234 (human entry)).
T2 construct: Stably expressed on CHO cells (CHO-cFOLR1); also called cynomolgus FOLR1; CHO-cFOLR1
T2 sequence (P15328 other isoform, or with tags, fused parts or gaps limits assumed): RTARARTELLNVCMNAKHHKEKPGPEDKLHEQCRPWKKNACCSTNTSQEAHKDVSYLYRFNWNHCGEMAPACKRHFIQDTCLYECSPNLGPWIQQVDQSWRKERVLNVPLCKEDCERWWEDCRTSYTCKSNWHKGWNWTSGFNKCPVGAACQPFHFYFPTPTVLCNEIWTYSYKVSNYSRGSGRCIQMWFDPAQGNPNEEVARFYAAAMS
In words: FACS, CHO-cFOLR1 cells.
B1 yielded a Bmax of 20400 MFI.

The molecule B2 returned a Bmax of 21800 MFI.

For the molecule B3, the Bmax worked out at 22000 MFI.

Consider B4, for which the Bmax amounted to 20600 MFI.

B5 had a Bmax of 18700 MFI.

For B6, the Bmax stood at 24700 MFI.

As to B7, the Bmax is 28000 MFI.

Consider B8, for which the Bmax came to 15200 MFI.

For the molecule B9, the Bmax amounted to 20900 MFI.

In turn, B10 showed a Bmax of 16000 MFI.

Turning to B11, the Bmax amounted to 20700 MFI.

In turn, B12 returned a Bmax of 14100 MFI.

In turn, B13 came in with a Bmax of 18500 MFI.

The target in another assay is T3, Human folate receptor alpha (hFOLR1) (human, UniProt P15328 25-234).
T3 construct: Stably expressed on CHO cells (CHO-hFOLR1) for flow cytometry; endogenous on FOLR1-positive KB and Igrov1 cells in the killing assay; also called human FOLR1; FolRα
T3 sequence (P15328 25-234 limits assumed): as the sequence (P15328 other isoform, or with tags, fused parts or gaps limits assumed) above, with T2I, R4W, K37R, R117Q, P146A, Y171H counted along it
In words: FACS, CHO-hFOLR1 cells. The protocol: CHO cells were transfected to stably express human (CHO-hFOLR1), cynomolgus (CHO-cFOLR1), or mouse (CHO-mFOLR1) target molecule FOLR1 on the cell surface. Parental CHO cells were used as a negative control to determine background binding levels. Parental CHO and stably transfected CHO-hFOLR1, CHO-cFOLR1, and CHO-mFOLR1 cells were cultured in Ham's F-12: high glucose DMEM (50:50) (Corning, Cellgro-Mediatech) supplemented with 10% heat-inactivated fetal bovine serum (Corning, Cellgro-Mediatech), 1% Penicillin/Streptomycin (Corning, Cellgro-Mediatech) and 2 mmol/L-glutamax (Life Technology).
A mixture of fluoresecent-labeled parental CHO cells and unlabeled CHO-hFOLRlcells were prepared as follows. Parental CHO cells were washed twice in PBS and incubated in PBS containing with 1 nM CellTrace™ Oregon Green488® (Life Technologies) at 37° C. for 30 minutes. Labeled parental CHO cells were then washed 2× with Ham's F-12 media and 2× with FACS buffer (PBS with 1% bovine serum albumin). Unlabeled CHO-hFOLR1 cells were similarly washed and prepared. Labeled parental CHO and unlabeled CHO-hFOLR1 cells were combined at 1:1 ratio and seeded at 50 μL per well (200,000 cells per well) in 96 well polypropylene plates. Cells were mixed with 50 μL of test antibodies (i.e., anti-FOLR1 variants) serially diluted in FACS buffer and incubated on ice for 60 mins. Cells were washed with FACS buffer and incubated on ice for 60 mins with 100 μL FACS buffer containing 2.5 μg/mL R-Phycoerythrin-conjugated goat anti-Human IgG (Jackson ImmunoResearch Laboratories, West Grove, Pa.). Cells were washed twice with FACS buffer, fixed in 2% paraformaldehyde in PBS (Santa Cruz Biotechnology; Dallas, Tex.) for 10 mins on ice in the dark, and analyzed using the BD LSR II Flow Cytometer (BD Biosciences; San Jose, Calif.). Data were analyzed using FlowJo® software (FlowJo, LLC; Ashland, Oreg.) to determine mean fluorescence intensities. Binding constants were calculated using the statistical software, GraphPad Prism (GraphPad Software; La Jolla, Calif.) using the nonlinear regression equation, one site-specific binding with Hill slope. Secondary antibody alone was used as a control, in addition to measuring non-specific antibody binding to CHO parental cells.
B1 displayed a Bmax of 27300 MFI.

Turning to B2, the Bmax is 26800 MFI.

B3 displayed a Bmax of 26300 MFI.

As to B4, the Bmax amounted to 26500 MFI.

Regarding B5, the Bmax came out at 27400 MFI.

B6 had a Bmax of 27200 MFI.

With B7, the Bmax was 28800 MFI.

For the molecule B8, the Bmax was found to be 26800 MFI.

With B9, the Bmax is 27400 MFI.

In turn, B10 registered a Bmax of 27500 MFI.

For the molecule B11, the Bmax came out at 25600 MFI.

For B12, the Bmax came out at 26000 MFI.

B13 gave a Bmax of 24700 MFI.
